# Biological target: mitochondrial large-conductance Ca2+-regulated potassium channel (mitoBKCa channel) (human (endogenous in U-87 MG)) (UniProt Q12791)
# Sequence of UniProt Q12791 (Q12791 whole entry, looked up): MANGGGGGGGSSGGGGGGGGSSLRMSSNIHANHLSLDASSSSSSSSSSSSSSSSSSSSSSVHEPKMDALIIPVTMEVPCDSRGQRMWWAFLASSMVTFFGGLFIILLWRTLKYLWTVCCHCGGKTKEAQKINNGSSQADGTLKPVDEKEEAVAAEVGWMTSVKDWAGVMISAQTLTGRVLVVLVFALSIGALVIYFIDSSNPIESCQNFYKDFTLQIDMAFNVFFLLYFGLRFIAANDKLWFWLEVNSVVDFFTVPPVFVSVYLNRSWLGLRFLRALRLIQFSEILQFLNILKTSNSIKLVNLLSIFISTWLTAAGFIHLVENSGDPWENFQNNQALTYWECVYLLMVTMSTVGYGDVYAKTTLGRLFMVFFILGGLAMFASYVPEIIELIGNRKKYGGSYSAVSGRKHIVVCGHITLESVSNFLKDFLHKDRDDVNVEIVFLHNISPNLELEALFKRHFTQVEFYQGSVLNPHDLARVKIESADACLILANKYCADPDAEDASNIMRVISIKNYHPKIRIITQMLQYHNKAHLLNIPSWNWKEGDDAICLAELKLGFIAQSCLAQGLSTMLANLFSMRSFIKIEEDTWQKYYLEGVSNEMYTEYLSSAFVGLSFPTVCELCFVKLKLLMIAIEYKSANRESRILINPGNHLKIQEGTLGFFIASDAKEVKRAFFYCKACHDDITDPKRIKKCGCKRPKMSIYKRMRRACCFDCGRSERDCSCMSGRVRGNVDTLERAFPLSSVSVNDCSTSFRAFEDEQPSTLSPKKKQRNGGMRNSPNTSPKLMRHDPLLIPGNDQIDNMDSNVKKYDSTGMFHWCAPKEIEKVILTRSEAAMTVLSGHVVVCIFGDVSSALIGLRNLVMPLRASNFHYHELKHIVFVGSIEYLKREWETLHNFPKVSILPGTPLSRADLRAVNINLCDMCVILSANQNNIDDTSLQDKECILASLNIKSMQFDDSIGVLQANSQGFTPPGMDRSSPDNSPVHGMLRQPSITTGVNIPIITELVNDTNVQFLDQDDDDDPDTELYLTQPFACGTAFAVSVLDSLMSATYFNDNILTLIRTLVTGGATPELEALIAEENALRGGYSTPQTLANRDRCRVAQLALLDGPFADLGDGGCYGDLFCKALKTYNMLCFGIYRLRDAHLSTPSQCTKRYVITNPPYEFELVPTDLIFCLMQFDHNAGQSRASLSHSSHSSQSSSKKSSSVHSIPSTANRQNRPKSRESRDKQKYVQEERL
substance,measurement,value
iberiotoxin (from UniProt P24663 1-37) (peptide),open probability (Po) of the mitoBKCa channel in patch-clamped mitoplasts (inside-out) after 100 nM iberiotoxin; control Po 0.95,0.15 Po

# From publication PMC3694950
